Assays:
[1] = target: SARS-CoV-2 Omicron BA.1 spike antigen of the SPR column (construct not stated) (SARS-CoV-2); test: SPR
[2] = target: SARS-CoV-2 Delta spike antigen of the SPR column (construct not stated) (SARS-CoV-2); test: SPR

B1: YB9-258 (antibody, V domains shown)
VH: EVQLVESGGGLIQPGGSLRLSCAASGLTVSSNYMHWVRQAPGKGLEWVSVLYAGGSAFYADSVKGRFTISRNNSKNTLYLQMNSLRAEDTAIYYCARGLGDYLDSWGQGTLVTVSS
VL: DIQMTQSPSSVSASVGDRVTITCRASQGIGSWLAWYQQKPGKAPQLLIYAASTLQSGVPPRFSGSGSGTDFTLTITSLQPEDFASYYCQQANSVLALTFGGGTKVEIK
[1]
  Kd: 6.06 nM
[2]
  Kd: 0.00391 nM

— paper PMC9951844
